According to US20230287068A1, “KERATIN BD-6, PREPARATION METHOD THEREFOR AND PHARMACEUTICAL COMPOSITION AND USE THEREOF” (INSTITUTE OF MATERIAL MEDICA, CHINESE ACADEMY OF MEDICAL …, priority 2019, published 2023):

What was measured:
[1] = system: PLO-induced epilepsy in mice; experiment: Pilocarpine (PLO) induced convulsive epilepsy in mice; assay type: in vivo, ICR mice; parameters: mortality rate: unit not given here; conditions: for Cases of deaths / Grade IV seizure rate / mortality rate / Cases of Grade IV / Grade II seizure incubation period / Grade III seizure incubation period / Grade IV seizure incubation period: PLO 225 mg/kg i.p.; for Cases of deaths / Grade IV seizure rate / mortality rate / Cases of Grade IV: 10 mice; for Cases of Grade IV: 30 min observation; for Grade II seizure incubation period / Grade III seizure incubation period / Grade IV seizure incubation period: mean±SEM; for Grade IV seizure incubation period: maximum 1800 seconds
Experimental: • Animals: male ICR mice; • Drugs: Pilocarpine HCl (PLO, pilocarpine, pilocarpine hydrochloride), Diazepam (diazepam tablets), protein BD-6. • Experiment grouping: • Model group: • Diazepam 2 mg/kg group; • Protein BD-6, 50 mg/kg group, 200 mg/kg group.
The drug was administered once in the afternoon the day before modeling, PLO-225 mg/kg (modeling agent) was injected intraperitoneally 1 hour after the test drug was administered intragastrically on the day of modeling. And positive drug can be administered once 20 minutes before modeling. Observe for 30 minutes after PLO injection.
Observation indicators: ①Seizure situation: the time of seizures from Grade II to Grade IV; ②the time to death.
Seizure grade: Refer to Racine grading standard: Grade 0: No response; Grade I: manifested as twitching of facial muscles or the corners of the mouth; Grade II: can nod; Grade III: twitching of one limb; Grade IV: rigidity or body twitching; Grade V: generalized epilepsy (generalized tonic seizures).
Count the number of Grade IV seizures and deaths in each group of mice in the experiment; Grade II, III and IV incubation period. […] Chi-square test was used for statistics of the number of cases. The mean value and standard error of the incubation period were calculated, and TTEST was used to compare the model group with other groups. P<0.05 was considered as a significant difference.

[2] = system: acetic acid writhing of ICR mice; experiment: Acetic acid writhing test in ICR mice; assay type: in vivo; conditions: for Frequency of writhing / Writhing incubation period: 0.6% acetic acid i.p., within 15 minutes
Experimental: • Animals: male ICR mice; • Drugs and reagents: aspirin, physiological saline, glacial acetic acid, protein BD-6. • Experiment grouping: • Model group; • Aspirin 300 mg/kg group; • Protein BD-6, 50 mg/kg group, 200 mg/kg group.
One day after the experimental animals adapt to the environment, Aspirin 300 mg/kg, protein BD-6 50 mg/kg, 200 mg/kg were given orally one hour in advance, and the administration volume was 10 ml/kg; Then, 0.6% acetic acid solution was injected intraperitoneally, and the incubation period (seconds) and frequency of writhing in the animal was observed within 15 minutes.
Calculate the mean and standard error of the data in each group. Compared with the model group by TTEST, P<0.05 was considered as statistically different.

[3] = system: phenol red excretion method in mice; experiment: Expectorant test, phenol red excretion method in mice; assay type: in vivo, ICR mice; conditions: for Phenol red excretion: X±SEM, N=10
Experimental: • Animals: male ICR mice; • Drugs and reagents: Mucosolvan (ambroxol hydrochloride tablets), phenol red, sodium bicarbonate, protein BD-6; • Instruments: centrifuge (Sigma-3K15 type), balance (XS105DU type), Microplate tester (BIO-TEK type). • Experiment grouping: • Solvent control group; • Mucosolvan 30 mg/kg group; • Protein BD-6, 20 mg/kg group, 50 mg/kg group.
The animals were fasted and water was taken freely 16 hours before the experiment. Orally administered Mucosolvan and different doses of protein BD-6 (administration volume 10 ml/kg) in groups, and the solvent control group was given the same volume of distilled water. One hour later, 2.5% phenol red solution was injected intraperitoneally. Mice were sacrificed by neck dislocation after 30 minutes. Take a trachea from below the thyroid cartilage to the branch of the trachea, and put the trachea into 3 ml 5% NaHCO3 solution and let it stand for 3 hours. Take 1 ml of the supernatant and centrifuge at 3000 rpm for 5 minutes. Measure and record the absorbance at 546 nm. According to the standard curve of phenol red, the excretion of phenol red was calculated.
Record the time point of oral administration, the time point of intraperitoneal injection of 2.5% phenol red solution, and the time point of taking the trachea respectively; The absorbance of each group of samples was measured by the microplate reader at 546 nm, Calculate the excretion of phenol red according to the standard curve of phenol red. Calculate the mean and standard error of the data in each group, and use TTEST to compare the solvent control group with other groups, and P<0.05 is considered as a significant difference.

[4] = system: yeast-induced fever model in rats; experiment: Yeast-induced fever model in SD rats; assay type: in vivo; conditions: for Body temperature 2 hours after modeling / Body temperature 4 hours after modeling / Body temperature 6 hours after modeling / Body temperature 8 hours after modeling: 20% yeast s.c., SD rats
Experimental: • Medicines: yeast (OXOID LP0021), aspirin (SIGMA A2093), protein BD-6; • Instruments: electronic balance (SARTORIUS BP121S type), electronic clinical thermometer (CITIZEN CT-513W type). • Experiment grouping: • Normal control group; • Model group: yeast fever model; • Positive control group: Aspirin 300 mg/kg group; • Protein BD-6, 10 mg/kg group, 50 mg/kg group.
Preparation of experimental animals: After the experimental animals adapt to the experimental environment (temperature 22° C.±2° C., relative humidity 50%±2%) for 1 day. Pre-adaptation to measure rectal temperature at 8:00 and 15:00, rats were fasted and water was taken freely 12 h before experiment, and let the animal to empty its feces before measuring the rectal temperature. Apply petroleum jelly to the electronic thermometer probe before each temperature measurement. Insert the rat rectum 2 cm (can be marked at 2 cm to ensure that the depth of each insertion is consistent), and record the body temperature after the reading is stable.
Subcutaneous injection of dry yeast to replicate rat fever model: The body temperature of the rats was measured before modeling. Qualified rats with a body temperature of 36.2-37.3° C. were selected and randomly divided into groups with 8 rats in each group. After oral administration of aspirin and different doses of protein BD-6, 20% yeast suspension (10 ml/kg) was injected subcutaneously immediately, and the normal control group was injected intraperitoneally with an equal volume of normal saline. The body temperatures of the rats were monitored after 2 hours for a total of 8 hours.
According to the body temperature measured at each time point on the day of the experiment, calculate the mean, standard deviation and standard error of the body temperature of each group of rats. The data of each group was compared with TTEST, and P<0.05 was considered as a significant difference.

B1: BD-6: recombinant keratin with the amino acid sequence SEQ ID NO:1, expressed in E. coli, about 45 kD; protein of Example 4 (protein, listed as Bos taurus)
chain: MTTTIRHFSSGSIKGSSGLAGGSSRSCRVSGSLGGGSCRLGSAGGLGSGLGGSSYSSCYSFGSGGSYGSGGYVSGGYGGGFGGVDGLLVGGEKATMQNLNDRLASYLDKVRALEEANTELELKIRDWYQKQAPGPAPDYSSYFKTIEDLRNKIHTATVDNANLLLQIDNARLAADDFRTKFETEQALRVSVEADINGLRRVLDELTLARADLEMQIENLKEELAYLRKNHEEEMKALRGQVGGEINVEMDAAPGVDLSRILNEMRDQYEKMAEKNRKDAEDWFFSKTEELNREVATNSELVQSGKSEISELRRTLQALEIELQSQLSMKASLEGSLAETENRYCMQLSQIQGLIGSVEEQLAQLRCEMEQQNQEYKILLDVKTRLEQEIATYRRLLEGEDAHLTQYKTKEPVTTRQVRTIVEEVQDGRVISSREQVHQTSH
[1]; BD-6 50 mg/kg intragastric
  Cases of deaths: 0
  Grade IV seizure rate: 40%
  mortality rate: 0
  Cases of Grade IV: 4
  Grade II seizure incubation period: 110±7^∗ s
  Grade III seizure incubation period: 169±9^∗ s
  Grade IV seizure incubation period: 1439±155^∗ s
[1]; BD-6 50 mg/kg, PLO model
  Incubation period of epilepsy Grade II, III and IV vs model group (in words): statistically different from the model group
[1]; BD-6 200 mg/kg intragastric
  Cases of deaths: 0
  Grade IV seizure rate: 50%
  mortality rate: 0
  Cases of Grade IV: 5
  Grade II seizure incubation period: 99 ± 6 s
  Grade III seizure incubation period: 157 ± 8 s
  Grade IV seizure incubation period: 1279 ± 181 s
[2]; BD-6 50 mg/kg oral
  Frequency of writhing: 31.1±3.7 times
  Writhing incubation period: 220.7 ± 22.2 s
[2]; BD-6 200 mg/kg oral
  Frequency of writhing: 18.6±2.7^∗∗ times
  Writhing incubation period: 193.2 ± 17.3 s
[2]; BD-6 200 mg/kg, P<0.05
  Times of writhing vs model group (in words): can significantly reduce the times of writhing in mice
[3]; BD-6 20 mg/kg and 50 mg/kg, P<0.05
  Excretion of phenol red vs solvent control (in words): significantly increased the excretion of phenol red
[3]; BD-6 20 mg/kg oral
  Phenol red excretion: 0.789±0.115^∗ µg/ml
[3]; BD-6 50 mg/kg oral
  Phenol red excretion: 0.855±0.085^∗∗ µg/ml
[4]; BD-6 10 mg/kg oral
  Body temperature 2 hours after modeling: 37.0±0.1 °C
  Body temperature 4 hours after modeling: 37.4±0.1 °C
  Body temperature 6 hours after modeling: 37.3±0.09 °C
  Body temperature 8 hours after modeling: 37.5±0.1 °C
[4]; BD-6 50 mg/kg oral
  Body temperature 2 hours after modeling: 37.0±0.2 °C
  Body temperature 4 hours after modeling: 37.4±0.1 °C
  Body temperature 6 hours after modeling: 37.4±0.1 °C
  Body temperature 8 hours after modeling: 37.3±0.1 °C
[4]; BD-6 10 and 50 mg/kg, most time points after modeling, P<0.05 vs model group
  Effect on increase in body temperature (in words): can inhibit the increase in body temperature of model rats to varying degrees
